Holding throughout (assay): FACS, 1 ug/mL antibody, transfected 293F cells
One assay deals with T1, Variant 1: xPro1.FL-x1 (human; mouse).
T1 construct: Chimeric full-length LAG-3 on transfected 293F cells
T1 chain: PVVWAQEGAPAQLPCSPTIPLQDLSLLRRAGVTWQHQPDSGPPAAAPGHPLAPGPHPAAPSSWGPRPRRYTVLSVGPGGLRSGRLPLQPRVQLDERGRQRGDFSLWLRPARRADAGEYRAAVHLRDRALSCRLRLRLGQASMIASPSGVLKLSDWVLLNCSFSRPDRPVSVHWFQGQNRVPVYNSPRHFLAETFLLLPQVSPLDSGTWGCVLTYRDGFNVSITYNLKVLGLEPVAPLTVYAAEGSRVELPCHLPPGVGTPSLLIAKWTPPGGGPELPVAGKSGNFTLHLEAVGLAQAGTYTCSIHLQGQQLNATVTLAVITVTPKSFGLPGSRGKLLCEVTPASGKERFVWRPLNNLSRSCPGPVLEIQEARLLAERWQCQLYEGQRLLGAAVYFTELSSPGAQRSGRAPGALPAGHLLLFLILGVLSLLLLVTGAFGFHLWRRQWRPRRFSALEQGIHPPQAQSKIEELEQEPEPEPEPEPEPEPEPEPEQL
As to the method:
(§1) The 10 variants were cloned into pcDNA3 vector and used for 293F cell transfection. Briefly, 293F cells were diluted to a density of 1×10⁶ cells/mL with FreeStyle 293F medium and aliquots of 3 mL/well were added to 24-well plate. Transfections were performed using 293fectin reagent (Life Technologies). For each transfection, 3 μg of DNA were diluted in 150 μOpti-MEM I-reduced serum medium (Life Technologies), and then combined with 6μL 293fectin reagent pre-diluted in 150 μL Opti-MEM I reduced serum medium. The DNA/[…] mixture was allowed to stand at 25° C. for 20 min before being added to the culture. The transfected cells were analyzed by flow cytometry at 48 h post-transfection.
(§2) Binding of antibodies to chimeric LAG-3 variants or full length human/mouse LAG-3 was analyzed by flow cytometry. Briefly, 1 μg/mL antibodies were incubated with chimeric LAG-3-expressing transfected 293F cells for 1 hour at 4° C., and then incubated with 3 μg/mL goat anti-human IgG Fc R-PE (Jackson) for 40 min at 4° C. Cells were analyzed with flow cytometer.

The target of a further assay is T2, Variant 3: xPro1.FL-x3 (human; mouse).
T2 construct: Chimeric full-length LAG-3 on transfected 293F cells
T2 chain: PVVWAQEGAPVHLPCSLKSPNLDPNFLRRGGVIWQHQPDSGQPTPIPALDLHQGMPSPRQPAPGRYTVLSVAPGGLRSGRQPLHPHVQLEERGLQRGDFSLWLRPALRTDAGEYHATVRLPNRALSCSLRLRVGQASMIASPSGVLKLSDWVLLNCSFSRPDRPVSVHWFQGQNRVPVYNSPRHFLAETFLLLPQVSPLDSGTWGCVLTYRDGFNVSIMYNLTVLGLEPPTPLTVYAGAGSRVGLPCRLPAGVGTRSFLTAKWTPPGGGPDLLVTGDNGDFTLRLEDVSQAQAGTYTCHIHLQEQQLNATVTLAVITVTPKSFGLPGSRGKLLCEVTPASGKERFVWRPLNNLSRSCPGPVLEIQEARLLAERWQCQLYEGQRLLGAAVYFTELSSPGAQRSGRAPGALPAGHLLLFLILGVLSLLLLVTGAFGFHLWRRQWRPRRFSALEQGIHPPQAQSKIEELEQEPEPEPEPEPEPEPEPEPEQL
As for the experimental part: as §1, §2

For another assay, the target named is T3, Variant 4: xPro1.FL-x4 (human; mouse).
T3 construct: Chimeric full-length LAG-3 on transfected 293F cells
T3 chain: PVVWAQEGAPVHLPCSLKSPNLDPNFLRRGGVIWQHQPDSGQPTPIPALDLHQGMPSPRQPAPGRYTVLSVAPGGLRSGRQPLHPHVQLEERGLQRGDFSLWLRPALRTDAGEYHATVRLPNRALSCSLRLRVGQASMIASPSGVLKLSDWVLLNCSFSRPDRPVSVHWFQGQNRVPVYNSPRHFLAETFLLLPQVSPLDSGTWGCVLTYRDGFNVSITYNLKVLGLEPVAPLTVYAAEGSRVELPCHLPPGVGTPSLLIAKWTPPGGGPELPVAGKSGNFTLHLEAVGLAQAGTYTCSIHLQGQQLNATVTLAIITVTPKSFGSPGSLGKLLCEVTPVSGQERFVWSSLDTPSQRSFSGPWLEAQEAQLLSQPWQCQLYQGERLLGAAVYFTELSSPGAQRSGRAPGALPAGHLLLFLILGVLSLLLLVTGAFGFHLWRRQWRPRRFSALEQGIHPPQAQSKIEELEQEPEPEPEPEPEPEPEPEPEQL
As for the experimental part: as §1, §2

Assay [1] deals with T4, full-length mouse LAG-3 on cells (mouse, UniProt Q61790 24-521).
T4 construct: also called mPro1.FL; murine LAG-3
T4 sequence: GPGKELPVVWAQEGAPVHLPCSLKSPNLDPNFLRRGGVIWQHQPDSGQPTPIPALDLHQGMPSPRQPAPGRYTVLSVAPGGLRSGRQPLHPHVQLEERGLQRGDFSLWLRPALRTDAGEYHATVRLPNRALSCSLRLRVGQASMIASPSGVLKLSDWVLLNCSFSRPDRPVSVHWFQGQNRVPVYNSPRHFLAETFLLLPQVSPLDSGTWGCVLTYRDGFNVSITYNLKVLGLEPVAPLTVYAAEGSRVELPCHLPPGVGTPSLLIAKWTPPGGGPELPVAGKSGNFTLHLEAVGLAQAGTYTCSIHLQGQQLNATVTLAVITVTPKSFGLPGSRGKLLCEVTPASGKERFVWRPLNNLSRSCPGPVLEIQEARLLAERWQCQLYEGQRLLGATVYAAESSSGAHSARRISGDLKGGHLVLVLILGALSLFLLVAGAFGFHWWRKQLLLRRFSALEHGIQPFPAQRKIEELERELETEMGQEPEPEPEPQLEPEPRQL
As for the experimental part:
as §1, §2

B1: 1.53.3-uAb-IgG4k (antibody, V domains shown)
VH: QVQLQQWGAGLLKPSETLSLTCGVYGGSFSGYYWSWIRQPPGMGLEWIGEINHRGNTNYNPSLKSRVTISEDTSKNQFSLRLSSVTAADTAVYFCTRGEDYSDYDYYGDFWGQGTLVTVSS
VL: EIVLTQSPATLSLSQGERATLSCRASQSISSYLAWYQQKPGQAPRLLIYAASNRATGIPARFSGSGSGTDFTLTISSLEPEDFAIYYCQQRSNWPLTFGGGTKVEIK
notes: Fully human antibody from OMT rats; IgG4 kappa by its name
Take B1: the MFI in the assay with Variant 1: xPro1.FL-x1 turned out to be 8580; in the assay with Variant 3: xPro1.FL-x3, 41.7; in the assay with Variant 4: xPro1.FL-x4, 41; in assay [1], 43.9. Also, the “PE+ %” value with Variant 1: xPro1.FL-x1 worked out at 97%; in the assay with Variant 3: xPro1.FL-x3, 2.03%; in the assay with Variant 4: xPro1.FL-x4, 1.42%; in assay [1], 1.1%.

(Values after patent US20200407442A1 (WUXI BIOLOGICS IRELAND, published 2020).)
